Source: publication PMC5395944, “Structural basis of inhibition of lipid-linked oligosaccharide flippase PglK by a conformational nanobody” (Scientific Reports, 2017)
“And” between values parts separate entries of the source, which are not always exact repeats. Equal values may be shown once.

Assays:
PglK-E510Q = target: T1, PglK-E510Q (C. jejuni, UniProt Q0P9C4, E510Q); assay: crystal structure; conditions: both partners purified
T1 construct: also called PglK mutant E510Q; source: E. coli BL21-Gold (DE3), purified from membranes in detergent (NiNTA, size exclusion chromatography)

[1] = target: PglK wild type (lipid-linked oligosaccharide flippase, ABC transporter) from Campylobacter jejuni (C. jejuni, UniProt Q0P9C4); assay: cross-linking; 0.1% glutaraldehyde for 30 min, then high-mass MALDI mass spectrometry; PglK 18 μM and Nb 18 μM (1:2 PglK-homodimer:Nb), 10 mM HEPES pH 7.5, 100 mM NaCl, 0.016% LMNG; without nucleotides or with 5 mM MgCl2 and 5 mM ADP or ATP; conditions: both partners purified

B1: Nb87 (inhibitory conformational nanobody against PglK) (VHH)
VHH: QVQLQESGGGLVQPGGSLRLSCAASGFTFSSYAMSWVRQAPGKGLEWVSAITSGGGSTSYSDAVKGRFTISRDNAKNTLYLQMNSLKPEDTAVYYCAKGYVVDFLDLAEYDSWGQGTQVTVSS
notes: source: E. coli WK6, periplasmic extract, purified (NiNTA)
PglK-E510Q
  stoichiometry N: 1 Nb87 per PglK homodimer
[1]
  stoichiometry N: 1 Nb87 per PglK homodimer and 2 Nb87 per PglK homodimer
